Here are results for 13 molecules from patent US20260234236A1 (INTERVET, published 2026).

Residue numbers refer to the chain shown, from its start. Numbers in names are those of the source.

Assay [1] deals with T1, Canine IL-13 with C-terminal Avi-HIS tag (canine, biotin label when loaded on SA biosensors (Example 4); site not stated).
T1 construct: also called cIL-13; biotinylated avitag-cIL13
T1 chain: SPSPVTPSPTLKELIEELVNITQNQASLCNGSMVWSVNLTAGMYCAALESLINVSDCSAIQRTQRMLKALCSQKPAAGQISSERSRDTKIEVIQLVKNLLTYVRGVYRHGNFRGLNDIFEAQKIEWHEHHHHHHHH
The experiment in a line: BLI (OCTET HTX); biotin-cIL-13 on SA biosensors, scFv in solution; 1:1 model. How it is done: The in vitro binding of anti-canine IL-4 scFv and IL-13 scFv to canine IL-4 and canine IL-13, respectively, was determined by OCTET HTX using SA biosensors and Data Acquisition 12.0 software. First, biotin-labeled antigen (cIL-4 or cIL-13) was loaded onto the pre-rehydrated SA biosensors for 60 seconds (60s) at a concentration of 5 μg/mL. Second, the biosensors were placed into the OCTET Kinetics Buffer (PBS+0.02% Tween20, 0.1% BSA) for the blocking phase for 120s. Third, for the association phase, cIL-4 or cIL-13 antigen loaded biosensors were placed into 2-fold serial dilutions from 500 nM down to 7.8 nM of anti-cIL-4 or anti-cIL-13 scFvs, respectively, in OCTET Kinetics Buffer for 60s. The last well was buffer alone and that sensor was used for reference sensor subtraction. Finally, the biosensors were placed into OCTET Kinetics Buffer for the dissociation phase for 300s. The analysis was performed using Data Analysis 12.0 software and curves were fitted using a 1:1 binding model.

Assay [2] addresses T2, Recombinant canine IL-4 (R&D Systems, Catalog: 752-CL/CF) (canine, UniProt O77762 25-132).
T2 sequence (looked up): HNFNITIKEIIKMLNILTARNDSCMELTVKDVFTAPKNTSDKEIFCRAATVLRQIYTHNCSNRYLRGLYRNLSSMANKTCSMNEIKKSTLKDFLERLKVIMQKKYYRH
Description: cell-based or functional assay.

The target in assay [3] is T3, Canine IL-4 with C-terminal Avi-HIS tag (canine, biotin label when loaded on SA biosensors (Example 4); site not stated).
T3 construct: also called cIL-4; biotinylated avitag-cIL-4
T3 chain: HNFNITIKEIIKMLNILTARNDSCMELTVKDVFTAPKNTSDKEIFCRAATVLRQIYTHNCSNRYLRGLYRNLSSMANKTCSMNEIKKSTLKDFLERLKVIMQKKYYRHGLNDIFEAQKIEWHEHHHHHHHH
Description: BLI (OCTET HTX); biotin-mAb on SA biosensors, cIL-4 in solution; 1:1 model. The method, then: Selected scFv specific to cIL-4 or cIL-13 were converted into full length canine IgG mAbs and tested for binding by OCTET. All kinetics measurements were performed by OCTET HTX using SA biosensors and Data Acquisition 12.0 software. First, each biotin-labeled full-length anti-canine IL-4 or anti-canine IL-13 mAb, at a concentration of 5 μg/mL, were loaded onto the pre-rehydrated SA biosensors until binding signal change ascended to a […] threshold for all channels from the step start or for a maximum of 1200s to insure equal loading density. Second, the biosensors were placed into OCTET Kinetics Buffer (PBS+0.02% Tween20, 0.1% BSA) for the blocking phase for 60s. Third, for the association phase, full-length anti-canine IL-4 mAb or anti-canine IL-13 mAb loaded biosensors were placed into 2-fold serial dilutions from 1000 nM down to 15.6 nM of cIL-4 or cIL-13, respectively, in OCTET Kinetics Buffer for 60s. The last well was buffer alone and that sensor was used for reference sensor subtraction. Finally, the biosensors were placed into OCTET Kinetics Buffer for the dissociation phase for 180s. Analysis was performed using Data Analysis 12.0 software and curves were fitted using a 1:1 binding model.

B1: IL13 P3-1 C2 scFv (scFv)
scFv: QAVLNQPASVSGSLGQRVTISCSGSSSNIGRGFVGWYQQLPGTRPKTLIYGDTFRPSGVPDRFFGSRSGSTATLTISGLQAEDEADYYCSTWDDSLAALLFGGGTHLTVLGGGSSRSSFSGGGGSGGGGEVQLVESGGDLVKPGGSLRLSCAASGFTFTDYDMSWVRQAPGKGLQWVATTSNGGSGTYYSDAVKGRFTISRDNAKNTLYLEMNRLRAEDTAVYYCVKEIYPASIDFWGLGTLVTVSSASTTAPSVTSGQAGQ
notes: scFv purified from E. coli periplasm on Ni-NTA
On to B1, for which, in assay [1], the Kd was 77.4 nM, the koff worked out at 0.00192 s⁻¹ and the kon was 29600 M⁻¹ s⁻¹.

B2: IL13 P3-05 scFv (scFv)
scFv: SYVLTQPPSVTVPLRQTARISCGGDNIRSKNVHWYQQKPGQAPVLIIYNDSNRPTGIPERFSGSNSGNMATLTIRGALAEDEADYYCQVWANDGYVFGSGTQLTVLGGGSSRSSSSGGGGSGGGGEVQLVESGGDSVRPGGSLRLSCVASGFTFSRYNMGWVRQAPGKGLQWVAWIYDGGSRTSYADAVKGRFTISRDNAKDTLYLQMDDLRVDDTAVYYCARDPSSWGSLFDYWGQGTLVTVSSASTTAPSVTSGQAGQ
notes: as for B1
Consider B2, for which, in assay [1], the Kd was determined as 59.7 nM, the koff was found to be 0.00487 s⁻¹ and the kon turned out to be 176000 M⁻¹ s⁻¹.

B3: IL13 P3-1 G5 scFv (scFv)
scFv: SYELTQPPSVSVSLGQTATISCSGESLSKYYAQWFQQKAGQAPVLVIYQDTERPSGIPDRFSGSSSGNTHTLTISGARAEDEADYYCESAISPDTYVFGSGTQLTILGGGSSRSSSSGGGGSGGGGEVQLVQSGGDLVKPGGTLRLSCVASGFTFSSYDMSWVRQSPGKGLQWVAAIWNDGSNTEYADAVKGRFTVSRDNAKNTVYLEMNSLRAEDTAMYYCVKEGPSYGYFDYWGQGTLVTVSSASTTAPSVTSGQAGQ
notes: as for B1
In assay [1], B3 yielded a Kd of 158 nM, a koff of 0.0158 s⁻¹ and a kon of 104000 M⁻¹ s⁻¹.

B4: IL4-P4A-1A4VH-cIgGB/IL4-P4A-1A4VL-cCL (antibody, V domains shown)
VH: EVQLVESGGDLVKPGGSLRLSCVASGFNFSRYSMSWVRQAPEKGLQLVAAVNSGGSRTWYADAVQGRFTVSRDNAKNTLFLEMSSLKLEDTAMYYCAKDLWSTTIAEYDYWGQGTLVTVSS
VL: SYVLSQPPSVSVTPSETAHITCGGNNIGSKYVQWIRQSAGQAPVTIIYGNTNRPTGIPERFSGANSGNTATLTISGVLAEDEADYYCQVGDTDTTVFGGGTHLTVL
Regarding B4, the “IL-4 IC50 (nM); inhibition of canine IL-4 mediated STAT6 phosphorylation in DH82 cells” value (shortened to “IL-4 IC50 (nM); inhibition”) in assay [2] was 4.24 nM.

B5: IL13 P3-1 B4 scFv (scFv)
scFv: SYVLTQSPSVSGSLGQTVTISCSGTTIGVVGANWYQQLPGKAPKLLVHSDGGRLSGVPDRFSGSESGNSAALTITGLQAEDEADYYCQSFDTTLGYVFGSGTQLTILGGGSSRSSSSGGGGSGGGGELTLQESGPGLVKPSQTLSLTCVVSGGSVTSNYYWNWIRQRPGRGLEWMGYWTGSTNYNPAFQGRISITADTAKNHFSLQLTSMTTEDTAVYYCARASTWLHGMDFWGHGTSLFVSSESPSPPNLTSGQAGQ
notes: as for B1
With B5, in assay [1], the Kd is 13.1 nM, the koff was 0.00224 s⁻¹ and the kon came to 320000 M⁻¹ s⁻¹.

B6: IL4-P3-1A6VH-cIgGB/IL4-P3-1A6VL-cCL (antibody, V domains shown)
VH: EVPLVESGGDLVKPGGSLRLSCVASGFTFHNYDLSWIRQLPGGGLQWVADIDKSGLTFYADAVKGRFTISRDNAKNTLYLQMNSLRAEDTAVYYCATWPLGSWYTETFEYWGQGTLVTVSS
VL: QPVLTQPPSVSAALGQRVTISCNTNIGSPYDVQWYQQLPGKSPKTIIYGNSNRPSGVPVRFSGSKSGSTATLTIAGIQAEDEADYYCQSYDDNVDGYVFGSGTQLTVLG
As to B6, the “IL-4 IC50 (nM); inhibition” value in assay [2] turned out to be 0.56 nM.

B7: IL4-P3-1B10VH-cIgGB/IL4-P3-1B10VL-cCL (antibody, V domains shown)
VH: EVQLVESGGDLVKPGGSLRLSCVASGFTFSNYDMSWVRQAPGKGLQWVSTISYDGNNTYYSDAVKGRFTISRDNARNTLYLQMNSLRAEDTAVYYCAKEFDIPWDNFDYWGQGTLVTVSS
VL: QSVLTQPTSVSAALGQRVTISCTGSNANIGSVYDVQWYQQLPGKSPKTIIYGNTHRPSGVPVRFSGSKSGSTATLTITGIQAEDEADYYCQSYDATLHYVFGSGTQLTVLG
As for B7, the “IL-4 IC50 (nM); inhibition” value in assay [2] is 87.8 nM.

B8: IL4-P3-1B10VHm-cIgGB/IL4-P3-1B10VL-cCL (antibody, V domains shown)
VH: B7 VH with N56Q
VL: B7 VL
notes: Full-length canine IgG-B; also called IL4 P3-1 B10m
For the molecule B8, the “IL-4 IC50 (nM); inhibition” value in assay [2] worked out at 30 nM. In assay [3], this molecule came in with a Kd of 0.622 nM, an off-rate (koff) of 0.000809 s⁻¹ and a kon of 1.3e+06 M⁻¹ s⁻¹.

B9: IL13 P2-1 H5 scFv (scFv)
scFv: QSVLNQPPSVSAALGQRVTISCTGTNTNIGSGYSVQWYQQLPGESPKPIIYGSSNRPSGVPARFSGSKSGSTGTLTITGIQAEDEADYHCQSYDDSLDGHAVFGGGTQLTVLGGGSSRSSSSGGGGSGGGGEVQLVQSGGDLVKPGGSLRLSCVASGFTFSGYDMSWVRQSPGKGLQWVATVWSDGNTIYYADAVKGRFTISRDNAKNTVYLQMNSLRAEDTAMYYCAKSPYCTDDYCPWGDYLDLWGQGTLVTVSSASTTAPSVTSGQAGQ
notes: as for B1
In assay [1], B9 registered a Kd of 9.09 nM, an off-rate (koff) of 0.00291 s⁻¹ and a kon of 321000 M⁻¹ s⁻¹.

B10: IL13 P4A-2 E11 scFv (scFv)
scFv: QSALTQTASVSGSLGQRVTISCTGATRNVGTVGVTWYQQVPGKAPKLLLFSNGDRPSWVPDRFSGSTSGYSATLIINGVQAEDEAMYHCQSFDTMPDAHYMFGSGTQLTVLGGGSSRSSSSGGGGSGGGGELTLQESGPGLVKPSQTLSLTCVVSGASVTSTNYWNWIRQRPGRGLEWMGYWTGSTKYNPAFQGRISITADTAKNQFSLQLSSMTTEDTAVYYCARSSTWINGFDYWGQGTLVTVSSESPSPPNLTSGQAGQ
notes: as for B1
For the molecule B10, in assay [1], the affinity, expressed as Kd, was 26.8 nM; the koff came out at 0.00466 s⁻¹; the kon stood at 174000 M⁻¹ s⁻¹.

B11: IL 13 P3-1C6 scFv (scFv)
scFv: QSVLTQPASVSGSLGQRVTISCSGRTNNIGYFGANWYQQVPGKAPKLLVSSYGNRPSGVPDRFSASNSANSATLTITGLQAEDEADYYCQSFDTTLGAVVFGGGTQLTVLGGGSSRSSSSGGGGSGGGGELTLQESGPGLVKPSQTLSLTCVVSGGSVTNTYEWDWIRQRPGRGLEWMGSWTDNTWYNPAFQGRISITADTAKNQLSLQLSSVTTGDTAVYFCARWTKRWGYDYWGQGTLVTVSSASTTAPSVTSGQAGQ
notes: scFv purified from E. coli periplasm on Ni-NTA; also called IL13 1C6
In assay [1], B11 displayed a Kd of 45.2 nM, a koff of 0.0107 s⁻¹ and an on-rate (kon) of 304000 M⁻¹ s⁻¹.

B12: IL4-P3-1C4VH-cIgGB/IL4-P3-1C4VL-cCL (antibody, V domains shown)
VH: EVPLVESGGDLVKPGGSLRISCVASGITFNNDDMGWVRQAPGKGLQWLAEISSSGTSTYYADAVKGRFTISRDNAKNTVYLQMNSLKAEDTGVYYCVGEDGYMALGFWGQGTLVTVSS
VL: QAVLNQPASVSGSLGQRVTISCSGSTNNIGVVGASWYQQFPGKAPKLLVYSDGDRPSGVPDRFSGSNSGYSDTLTITGLQAEDEADYYCQSFDTTLNAYVFGSGTQLTVLG
notes: Full-length canine IgG-B; also called IL4 P3-1 C4 5LC
B12: in assay [2], the “IL-4 IC50 (nM); inhibition” value was 5.41 nM. In assay [3], this molecule registered a dissociation constant Kd of 10.5 nM, an off-rate constant (koff) of 0.0189 s⁻¹ and a kon of 1.8e+06 M⁻¹ s⁻¹.

B13: IL4-P3-1B9VH-cIgGB/IL4-P3-1B9VL-cCL (antibody, V domains shown)
VH: ELQLVELGGDLVKPGGSLRLSCVASGFTFSSYGMSWVRQSPGKGLQWVADISSSGSTYYADAVKGRFTISRDNAKSTLYLQMNSLRAEDTAVYYCAKAGYGSYYDFGMDYWGHGTSVFVSS
VL: QAVLTQPASVSAALGQRVTISCTGTATNVGGGYDVQWYQQFPGRPPKTIIYGNYNRPSGVPDRFSASTSGTTATLTITGIQVADEADYYCQSFDTTFNGHVFGAGTQLTILG
notes: Full-length canine IgG-B
Turning to B13, the “IL-4 IC50 (nM); inhibition” value in assay [2] amounted to 3.77 nM. In assay [3], this molecule displayed a dissociation constant (Kd) of 0.0635 nM, a koff of 2.11e-05 s⁻¹ and a kon of 212000 M⁻¹ s⁻¹.
